These are literature values, as cited in article PMC3209554.

pKd: −log10 of the molar value.

In the series the target is ClpX N domain (Escherichia coli) (UniProt P0A6H1).
UniProt P0A6H1, sequence (P0A6H1 2-56): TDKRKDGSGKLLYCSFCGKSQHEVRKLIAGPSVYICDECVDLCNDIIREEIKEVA

On to “SspB C-terminal tail (from UniProt P0AFZ3)”, for which the pKd (in general, the negative decadic logarithm of the Kd, by convention in mol/L) was 4.70.
